Source: patent US6965850B2, “Methods for modulating nuclear receptor coactivator binding” (The Regents of the University of California, priority 1998, dated 2005)
Ends that are not written are not given here.

What was measured:
hTRβ LBD [1] = molecular target: T1, hTRβ LBD (Homo sapiens, UniProt P10828); test: Peptide competition of GRIP1 (563-767) interaction with hTRβ LBD; assay type: binding; design: made in house; host or cells: TR LBD: in vitro translation (reticulocyte lysate); GST-GRIP1 fragment: E. coli HB101
T1 sequence (P10828 202-461): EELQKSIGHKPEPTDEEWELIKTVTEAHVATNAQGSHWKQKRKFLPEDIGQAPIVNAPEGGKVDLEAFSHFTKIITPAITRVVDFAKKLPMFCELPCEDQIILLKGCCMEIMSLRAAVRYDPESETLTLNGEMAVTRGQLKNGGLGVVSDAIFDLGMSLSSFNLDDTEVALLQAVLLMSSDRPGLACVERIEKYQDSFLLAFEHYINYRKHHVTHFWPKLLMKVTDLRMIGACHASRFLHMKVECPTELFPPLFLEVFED
Protocol: (§1) For in vitro binding studies GR, TR and their derivatives were translated in the presence of [^35S]methionine using the TNT Coupled Reticulocyte System (Promega). Separate translations were performed in the presence and absence of 10 μM dexamethasone or 1 μM RU486 for GR and 10 μM triiodothyronine for TR. Expression was quantified by phosphoimager analysis (BAS2000, Fuji). For all binding assays 50 μl of a 20% bead suspension containing either 1.6 or 4.0 μM bound purified GST GRIP1 fragment (either 568-767 or 563-1121) was incubated with 0.2 μl or 1.4 μl in vitro transcribed and translated TR or GR, respectively. Binding was performed in the binding buffer described above supplemented with 20 μg/ml BSA and appropriate hormone. The chosen GST GRIP1 fragment concentrations were sufficient to bind either 70 or 100% of the TR derivatives. The reaction was incubated at 4° C. under rotation for 2 hours. In case of competition experiments, the appropriate concentration of peptides were added to the reaction before addition of receptors. However, no differences in the results were noted by adding the peptides after half of the incubation of the GST GRIP1 fragment with nuclear receptors. […] Beads were washed five times with 200 μl binding buffer+BSA at 4° C. before elution of the bound proteins in 20 μl SDS loading buffer. Eluted beads and input labeled protein were subjected to SDS-PAGE. The fraction of bound nuclear receptors was determined by phosphoimager analysis.

GR = test: GST-GRIP1 fragment pull-down of GR; assay type: binding
Protocol: as §1

hTRβ LBD [2] = molecular target: T1, hTRβ LBD; test: GST-GRIP1 fragment pull-down of TR; assay type: binding; design: made in house; host or cells: in vitro translation (TNT Coupled Reticulocyte System, Promega)
Protocol: For in vitro binding studies GR, TR and their derivatives were translated in the presence of [^35S]methionine using the TNT Coupled Reticulocyte System (Promega). Separate translations were performed in the presence and absence of 10 μM dexamethasone or 1 μM RU486 for GR and 10 μM triiodothyronine for TR. Expression was quantified by phosphoimager analysis (BAS2000, Fuji). For all binding assays 50 μl of a 20% bead suspension containing either 1.6 or 4.0 μM bound purified GST GRIP1 fragment (either 568-767 or 563-1121) was incubated with 0.2 μl or 1.4 μl in vitro transcribed and translated TR or GR, respectively. Binding was performed in the binding buffer described above supplemented with 20 μg/ml BSA and appropriate hormone. The chosen GST GRIP1 fragment concentrations were sufficient to bind either 70 or 100% of the TR derivatives. The reaction was incubated at 4° C. under rotation for 2 hours. In case of competition experiments, the appropriate concentration of peptides were added to the reaction before addition of receptors. However, no differences in the results were noted by adding the peptides after half of the incubation of the GST GRIP1 fragment with nuclear receptors. […] The fraction of bound nuclear receptors was determined by phosphoimager analysis.

hERα-LBD = molecular target: T2, hERα-LBD (Homo sapiens, UniProt P03372); test: Electrophoretic mobility shift assay with purified hERα-LBD; assay type: binding; settings: 2-fold or 10-fold molar excess of peptide, 6% native PAGE
T2 construct: made in house; host or cells: E. coli BL21(DE3)pLysS
T2 sequence (P03372 297-554): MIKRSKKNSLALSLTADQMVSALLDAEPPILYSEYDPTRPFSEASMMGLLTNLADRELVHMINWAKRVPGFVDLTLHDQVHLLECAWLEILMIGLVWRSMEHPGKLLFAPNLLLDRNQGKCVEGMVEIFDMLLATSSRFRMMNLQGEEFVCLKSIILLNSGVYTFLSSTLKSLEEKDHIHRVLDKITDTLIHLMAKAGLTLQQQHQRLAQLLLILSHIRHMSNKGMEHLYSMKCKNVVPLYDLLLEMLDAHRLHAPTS
Protocol: An electrophoretic mobility shift assay was used to directly assess the ability of the NR-box 2 peptide to bind the purified ERα LBD in the presence of either DES or OHT. Eight microgram samples of purified hERα-LBD bound to either DES or OHT were incubated in the absence of the peptide, i.e., buffer alone, or in the presence of either a 2-fold or 10-fold molar excess of the GRIP1 NR-box 2 peptide. The binding reactions were performed on ice for 45 minutes in 10 μl of buffer containing 20 mM Tris, pH 8.1, 1 mM DTT, and 200 mM NaCl and then subjected to 6% native PAGE. Gels were stained with GELCODE Blue Stain reagent (Pierce).

hERα V376R mutant = molecular target: T3, hERα V376R mutant (Homo sapiens, UniProt P03372, V376R); test: In vitro binding of [35S]-labeled hERα mutant to GST-GRIP1; settings: percentage of WT hERα
T3 construct: expression vector encoding full-length hERα, pSG5-er HEGO (WT or mutants); made in house; host or cells: hERα: in vitro translation implied by the [35S] label; GST-GRIP1: E. coli HB101
T3 sequence (P03372 1-595 V376R): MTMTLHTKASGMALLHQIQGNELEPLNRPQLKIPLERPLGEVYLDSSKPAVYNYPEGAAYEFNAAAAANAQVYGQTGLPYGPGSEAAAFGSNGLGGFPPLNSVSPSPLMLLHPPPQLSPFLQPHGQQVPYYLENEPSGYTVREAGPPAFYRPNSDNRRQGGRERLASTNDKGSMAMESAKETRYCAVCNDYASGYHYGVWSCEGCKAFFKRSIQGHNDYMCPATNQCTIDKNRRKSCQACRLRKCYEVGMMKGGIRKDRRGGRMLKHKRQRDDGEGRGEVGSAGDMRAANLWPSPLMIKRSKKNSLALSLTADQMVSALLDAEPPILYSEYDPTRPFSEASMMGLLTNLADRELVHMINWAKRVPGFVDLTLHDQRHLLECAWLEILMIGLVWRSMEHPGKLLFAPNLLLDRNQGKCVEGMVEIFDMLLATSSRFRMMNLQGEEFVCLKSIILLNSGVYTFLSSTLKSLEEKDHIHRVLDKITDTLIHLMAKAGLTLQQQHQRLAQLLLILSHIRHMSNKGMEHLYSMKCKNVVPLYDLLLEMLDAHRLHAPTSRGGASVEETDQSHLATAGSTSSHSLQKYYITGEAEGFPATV
Protocol: Beads were washed 3 times with 1 ml of binding buffer and the bound proteins were separated using 10% SDS-PAGE and visualized by autoradiography. Binding was quantitated by phosphorimaging using ImageQuant (Molecular Dynamics).

TAFII31 = molecular target: T4, TAFII31 (Homo sapiens, UniProt Q16594); test: GRIP1 interaction with TAFII31; assay type: binding; settings: data not shown
T4 sequence (Q16594 1-264): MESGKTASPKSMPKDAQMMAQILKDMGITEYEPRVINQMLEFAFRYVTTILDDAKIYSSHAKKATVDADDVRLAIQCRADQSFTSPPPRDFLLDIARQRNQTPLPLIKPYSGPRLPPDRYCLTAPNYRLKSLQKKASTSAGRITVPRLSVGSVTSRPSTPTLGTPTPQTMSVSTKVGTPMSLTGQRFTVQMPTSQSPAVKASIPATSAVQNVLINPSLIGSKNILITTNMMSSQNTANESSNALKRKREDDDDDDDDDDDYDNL

MDM2 = MDM2 (Homo sapiens, UniProt Q00987); test: GRIP1 interaction with MDM2; assay type: binding; settings: data not shown
Chain of MDM2 (Q00987 whole entry, species assumed): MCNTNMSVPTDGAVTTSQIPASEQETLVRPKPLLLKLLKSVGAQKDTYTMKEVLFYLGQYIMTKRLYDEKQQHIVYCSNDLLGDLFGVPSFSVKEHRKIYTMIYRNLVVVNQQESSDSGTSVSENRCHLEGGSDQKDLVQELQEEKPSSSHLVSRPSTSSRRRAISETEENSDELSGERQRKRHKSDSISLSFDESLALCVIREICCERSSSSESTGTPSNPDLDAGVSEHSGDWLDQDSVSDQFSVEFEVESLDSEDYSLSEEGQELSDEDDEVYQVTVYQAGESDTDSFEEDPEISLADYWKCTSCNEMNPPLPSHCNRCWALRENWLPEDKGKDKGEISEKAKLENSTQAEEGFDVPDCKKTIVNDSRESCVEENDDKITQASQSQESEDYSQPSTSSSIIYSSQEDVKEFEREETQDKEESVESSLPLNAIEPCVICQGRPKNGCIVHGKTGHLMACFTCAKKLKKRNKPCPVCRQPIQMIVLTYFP

KENALLRYLLDKDDTKD
competition with TR LBD interaction with GRIP1 (563-767) (hTRβ LBD [1]): increased affinity

LLRYLL (listed as Homo sapiens) [minimal motif of NR-box 3]
competition with TR LBD interaction with GRIP1 (563-767) (hTRβ LBD [1]): does not compete

NR-box 3: GST-GRIP1 (563-767) with hydrophobic residues of NR-box 2 replaced with alanine; NR-box 3 functional (ENALLRYLLDKDD)
binding of GR to GRIP1 fragment (GR): binds most strongly | loss of TR binding (hTRβ LBD [2]; hydrophobic residues of the NR-box replaced with alanine): about 50%

ILHRLL (MUTAGEN (15)..(15) Ile --> Ala; listed as Homo sapiens) [peptide consisting of the NR-box 2]
competition with TR LBD interaction with GRIP1 (563-767) (hTRβ LBD [1]): does not sufficiently compete

TSLKEKHKILHRLLQDS
competition with TR LBD interaction with GRIP1 (563-767) (hTRβ LBD [1]): increased affinity

686-KHKILHRLLQDSS-698 (not fully specified; printed as 686-KHKILHRLLQDSS-698; listed as Homo sapiens) [GRIP1 NR-box 2 peptide]
migration of DES-hERα-LBD complex in presence of peptide (hERα-LBD): retarded | mobility of OHT-hERα-LBD complex on peptide addition (hERα-LBD): no effect

TSLKEKHKLLRYLLQDSS
competition with TR LBD interaction with GRIP1 (563-767) (hTRβ LBD [1]): binds like a NR-box 2 peptide

PKKKENALLRYLLDKDDTKD
competition with TR LBD interaction with GRIP1 (563-767) (hTRβ LBD [1]): increased affinity

B1: GRIP1 (563-1121): GRIP1 (563-767) extended to residue 1121, GST fragment (protein)
chain: QNSPVNMNPPPLSKMGSLDSKDCFGLYGEPSEGTTGQAEASCHPEEQKGPNDSSMPQAASGDRAEGHSRLHDSKGQTKLLQLLTTKSDQMEPSPLPSSLSDTNKDSTGSLPGPGSTHGTSLKEKHKILHRLLQDSSSPVDLAKLTAEATGKELSQESSSTAPGSEVTVKQEPASPKKKENALLRYLLDKDDTKDIGLPEITPKLERLDSKTDPASNTKLIAMKTVKEEVSFEPSDQPGSELDNLEEILDDLQNSQLPQLFPDTRPGAPTGSVDKQAIINDLMQLTADSSPVPPAGAQKAALRMSQSTFNNPRPGQLGRLLPNQNLPLDITLQSPTGAGPFPPIRNSSPYSVIPQPGMMGNQGMLGSQGNLGNNSTGMIGSSTSRPSMPSGEWAPQSPAVRVTCAATTGAMNRPVQGGMIRNPTASIPMRANSQPGQRQMLQSQVMNIGPSELEMNMGGPQYNQQQAPPNQTAPWPESILPIDQASFASQNRQPFGSSPDDLLCPHPAAESPSDEGALLDQLYLALRNFDGLEEIDRALGIPELVSQSQAVDAEQFSSQE
modifications: left off: a dimerising Fc or GST
notes: GRIP1 (563-767) extended to residue 1121, GST fragment
increase of binding to GR on extension of GRIP1 (563-767) to residue 1121 (GR): about 3 fold | increase of binding of GR to GRIP1 (563-1121) in the absence of ligand (GR; GR deletion mutant lacking N-terminal AF-1 versus full length GR, no ligand): about 10 fold

B2: GRIP1 (563-767): fragment of GRIP1 containing all three NR-boxes, used as GST-fusion (protein)
chain: QNSPVNMNPPPLSKMGSLDSKDCFGLYGEPSEGTTGQAEASCHPEEQKGPNDSSMPQAASGDRAEGHSRLHDSKGQTKLLQLLTTKSDQMEPSPLPSSLSDTNKDSTGSLPGPGSTHGTSLKEKHKILHRLLQDSSSPVDLAKLTAEATGKELSQESSSTAPGSEVTVKQEPASPKKKENALLRYLLDKDDTKDIGLPEITPKLEHHHHHH
modifications: left off: a dimerising Fc or GST
notes: fragment of GRIP1 containing all three NR-boxes, used as GST-fusion
affinity of GR for GRIP1 (563-767) relative to a comparable amount of TR (GR): about one-fifth | binding of GR to GRIP1 fragment (GR): found to bind | binding of TR to GST-GRIP1 (563-767) fragment (hTRβ LBD [2]; NR-box hydrophobic residues replaced with alanine where mutant): strongly binds TR

B3: GRIP1: mouse p160 coactivator protein (protein)
chain: QNSPVNMNPPPLSKMGSLDSKDCFGLYGEPSEGTTGQAEASCHPEEQKGPNDSSMPQAASGDRAEGHSRLHDSKGQTKLLQLLTTKSDQMEPSPLPSSLSDTNKDSTGSLPGPGSTHGTSLKEKHKILHRLLQDSSSPVDLAKLTAEATGKELSQESSSTAPGSEVTVKQEPASPKKKENALLRYLLDKDDTKDIGLPEITPKLE
residual GRIP1 binding (hERα V376R mutant): 10% | interaction with TAFII31 (TAFII31): no interaction was detected | interaction with MDM2 (MDM2): no interaction was detected
